B4: his-tagged D1/D2 (refolded entire extracellular region of human CAR, IgV+IgC2 domains) (receptor)
chain: MGITTPEEMIEKAKGETAYLPCKFTLSPEDQGPLDIEWLISPADNQKVDQVIILYSGDKIYDDYYPDLKGRVHFTSNDLKSGDASINVTNLQLSDIGTYQCKVKKAPGVANKKIHLVVLVKPSGARCYVDGSEEIGSDFKIKCEPKEGSLPLQYEWQKLSDSQKMPTSWLAEMTSSVISVKNASSEYSGTYSCTVRNRVGSDQCLLRLNVVPPSNKAG
notes: range 20-237; also called CAR D1/D2; CARD1/D2; not shown: pET15b vector-encoded amino-terminal hexahistidine tag

Experiments:
[1] = target: B4; assay: Ni-NTA pull-down with his-tagged D1/D2, SDS-PAGE of bead eluate
[2] = target: T1, his-tagged Ad12 knob (wild type) (adenovirus serotype 12, UniProt P36711 401-587); assay: Ni-NTA column capture of his-tagged knob mixed with sD1, EDTA elution, SDS-PAGE
T1 construct: range 401-587; Cloned between the NdeI and BamHI sites of pET15b; tag left on; also called Purified, his-tagged Ad12 knob; wild-type his-tagged knob protein; not shown: pET15b vector-encoded N-terminal hexahistidine tag
T1 sequence: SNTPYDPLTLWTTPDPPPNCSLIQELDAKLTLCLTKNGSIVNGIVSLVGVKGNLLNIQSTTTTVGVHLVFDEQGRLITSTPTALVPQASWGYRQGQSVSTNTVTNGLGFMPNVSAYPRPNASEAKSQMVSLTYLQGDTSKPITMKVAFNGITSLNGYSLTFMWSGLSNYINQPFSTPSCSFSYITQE

[3] = target: T2, purified Ad2 hexon protein (adenovirus type 2, UniProt P03277 2-968); assay: Ni-NTA pull-down with his-tagged D1, SDS-PAGE of bead eluate
T2 construct: Included as a specificity control in the pull-down
T2 sequence (P03277 2-968 limits assumed): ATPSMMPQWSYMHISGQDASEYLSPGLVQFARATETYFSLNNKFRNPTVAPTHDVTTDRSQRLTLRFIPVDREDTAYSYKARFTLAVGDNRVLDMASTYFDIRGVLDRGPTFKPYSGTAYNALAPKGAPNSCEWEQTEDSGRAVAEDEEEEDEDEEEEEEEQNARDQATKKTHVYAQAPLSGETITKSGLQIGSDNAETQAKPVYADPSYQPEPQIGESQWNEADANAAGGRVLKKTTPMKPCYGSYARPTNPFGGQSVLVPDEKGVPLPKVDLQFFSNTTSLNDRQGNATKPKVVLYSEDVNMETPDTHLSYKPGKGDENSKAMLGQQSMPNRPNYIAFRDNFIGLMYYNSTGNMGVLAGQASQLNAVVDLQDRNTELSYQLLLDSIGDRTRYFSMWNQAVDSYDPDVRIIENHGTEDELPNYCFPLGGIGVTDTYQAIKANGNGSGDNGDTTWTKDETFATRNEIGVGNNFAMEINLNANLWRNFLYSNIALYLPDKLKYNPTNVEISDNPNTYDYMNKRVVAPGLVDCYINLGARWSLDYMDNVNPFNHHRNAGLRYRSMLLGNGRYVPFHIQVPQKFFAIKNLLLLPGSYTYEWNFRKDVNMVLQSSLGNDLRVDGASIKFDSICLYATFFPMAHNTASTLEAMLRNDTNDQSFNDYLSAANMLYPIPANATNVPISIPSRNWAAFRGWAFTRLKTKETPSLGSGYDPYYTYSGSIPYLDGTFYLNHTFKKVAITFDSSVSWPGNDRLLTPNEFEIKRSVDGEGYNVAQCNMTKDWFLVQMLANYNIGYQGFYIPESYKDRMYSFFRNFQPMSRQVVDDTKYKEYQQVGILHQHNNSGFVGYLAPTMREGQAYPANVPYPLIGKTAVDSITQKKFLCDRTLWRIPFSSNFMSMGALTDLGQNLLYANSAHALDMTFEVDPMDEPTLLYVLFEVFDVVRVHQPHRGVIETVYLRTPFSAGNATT

[4] = target: T2, purified Ad2 hexon protein; assay: Ni-NTA pull-down with his-tagged D1/D2, SDS-PAGE of bead eluate
[5] = target: T3, Ad12 knob mutant P417E/P418A (his-tagged) (adenovirus serotype 12, UniProt P36711 401-587); assay: dot blot: his-tagged knob on nitrocellulose (5 µg per dot) probed with biotinylated CARD1, chemiluminescence; text: abrogated CARD1 binding
T3 construct: range 401-587; AB loop; also called double substitution P417E/P418A; not shown: pET15b vector-encoded N-terminal hexahistidine tag
T3 sequence: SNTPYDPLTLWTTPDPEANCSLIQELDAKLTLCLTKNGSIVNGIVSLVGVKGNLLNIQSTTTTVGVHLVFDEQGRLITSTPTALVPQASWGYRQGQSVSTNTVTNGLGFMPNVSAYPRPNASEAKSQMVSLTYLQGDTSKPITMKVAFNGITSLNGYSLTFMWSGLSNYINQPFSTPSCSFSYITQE

B1: Ad12 knob (recombinant adenovirus type 12 fiber knob domain, his-tag removed by thrombin) (other)
chain: SNTPYDPLTLWTTPDPPPNCSLIQELDAKLTLCLTKNGSIVNGIVSLVGVKGNLLNIQSTTTTVGVHLVFDEQGRLITSTPTALVPQASWGYRQGQSVSTNTVTNGLGFMPNVSAYPRPNASEAKSQMVSLTYLQGDTSKPITMKVAFNGITSLNGYSLTFMWSGLSNYINQPFSTPSCSFSYITQE
notes: range 401-587; Expressed from pET15b in E. coli; The hexahistidine tag was cleaved with thrombin; Trimer by SDS-PAGE, STEM (60.6 kDa) and gel filtration; also called Ad12 fiber knob
B1: binds [1].

B2: sD1 (soluble D1 of human CAR with 22 amino acid carboxy-terminal extension) (receptor)
chain: MGITTPEEMIEKAKGETAYLPCKFTLSPEDQGPLDIEWLISPADNQKVDQVIILYSGDKIYDDYYPDLKGRVHFTSNDLKSGDASINVTNLQLSDIGTYQCKVKKAPGVANKKIHLVVLVKPSGALEDPAANKARKEAELAAATAEQ
notes: range 20-144; No hexahistidine tag; Used as a partially purified preparation; also called pET15b-sD1 product
B2: binds [2].

B3: his-tagged D1 (refolded amino-terminal IgV domain of human CAR) (receptor)
chain: MGITTPEEMIEKAKGETAYLPCKFTLSPEDQGPLDIEWLISPADNQKVDQVIILYSGDKIYDDYYPDLKGRVHFTSNDLKSGDASINVTNLQLSDIGTYQCKVKKAPGVANKKIHLVVLVKPSGA
notes: range 20-144; also called CAR D1; CARD1; not shown: pET15b vector-encoded amino-terminal hexahistidine tag
B3: no binding [3].

B4: no binding [4].

B5: biotinylated CARD1 protein (receptor)
chain: LSITTPEEMIEKAKGETAYLPCKFTLSPEDQGPLDIEWLISPADNQKVDQVIILYSGDKIYDDYYPDLKGRVHFTSNDLKSGDASINVTNLQLSDIGTYQCKVKKAPGVANKKIHLVVLVKPSGA
modifications: biotinylated with sulfo-NHS-LC biotin (sites not given)
notes: domain: D1
B5: no binding (tested: 5 µg/ml biotinylated CARD1) [5].
